Experimental data as given in US20130085101A1.

Target: human Type 1 IGF receptor (human) (UniProt P08069)
Test: competitive displacement of 125I-Tyr31-IGF-I; FLAG-tagged IGF-1R captured on anti-FLAG plate

Chain of human Type 1 IGF receptor (human) (P08069 31-1367 limits assumed): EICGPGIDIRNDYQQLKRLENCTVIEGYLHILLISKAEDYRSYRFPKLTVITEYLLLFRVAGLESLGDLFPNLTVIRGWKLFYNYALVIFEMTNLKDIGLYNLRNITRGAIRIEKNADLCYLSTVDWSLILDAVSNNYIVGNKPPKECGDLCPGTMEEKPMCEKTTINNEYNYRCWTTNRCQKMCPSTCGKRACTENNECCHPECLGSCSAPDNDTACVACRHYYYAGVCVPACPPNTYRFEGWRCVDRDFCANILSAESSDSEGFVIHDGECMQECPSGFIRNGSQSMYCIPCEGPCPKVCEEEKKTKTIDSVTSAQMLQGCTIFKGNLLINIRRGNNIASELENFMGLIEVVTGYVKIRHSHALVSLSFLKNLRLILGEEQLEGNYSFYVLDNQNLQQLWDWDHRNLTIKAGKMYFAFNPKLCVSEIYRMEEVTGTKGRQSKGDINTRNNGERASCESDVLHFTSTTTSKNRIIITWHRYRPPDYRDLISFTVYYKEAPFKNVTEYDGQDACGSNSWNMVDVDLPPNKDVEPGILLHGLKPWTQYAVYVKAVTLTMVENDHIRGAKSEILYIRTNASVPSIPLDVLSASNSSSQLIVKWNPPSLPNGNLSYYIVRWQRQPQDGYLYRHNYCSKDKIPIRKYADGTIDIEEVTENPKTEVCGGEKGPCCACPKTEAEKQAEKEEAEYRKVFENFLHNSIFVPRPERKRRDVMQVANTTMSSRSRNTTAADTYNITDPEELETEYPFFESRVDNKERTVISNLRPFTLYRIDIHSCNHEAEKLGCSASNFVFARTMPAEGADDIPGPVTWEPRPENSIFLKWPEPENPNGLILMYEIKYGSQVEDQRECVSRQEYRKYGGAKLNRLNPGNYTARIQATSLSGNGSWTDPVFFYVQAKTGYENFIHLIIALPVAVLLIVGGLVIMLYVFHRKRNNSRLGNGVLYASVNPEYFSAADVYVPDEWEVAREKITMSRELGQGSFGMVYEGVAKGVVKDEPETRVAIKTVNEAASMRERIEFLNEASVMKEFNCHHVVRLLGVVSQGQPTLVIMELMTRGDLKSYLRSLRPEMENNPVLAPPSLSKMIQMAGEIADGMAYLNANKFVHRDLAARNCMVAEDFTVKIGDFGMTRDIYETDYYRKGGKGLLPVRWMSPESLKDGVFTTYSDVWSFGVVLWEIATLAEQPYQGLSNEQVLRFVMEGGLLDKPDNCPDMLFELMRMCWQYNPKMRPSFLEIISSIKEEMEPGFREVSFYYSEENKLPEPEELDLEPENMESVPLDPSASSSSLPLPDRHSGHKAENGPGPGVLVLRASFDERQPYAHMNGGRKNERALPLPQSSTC

Substance: lispro-insulin (ligand; other documents disagree on this pair)
- relative affinity (percent (of IGF-I for IGF-1R)): 0.27
